The results in this text go back to patent US20240241109A1 (NATIONAL JEWISH HEALTH, published 2024).

Broadly, the Kd is the equilibrium constant for the complex coming apart. A higher Kd goes with a looser complex. As usually defined, the koff is the rate constant with which the complex falls apart. Broadly, the kon is the second-order rate constant of association. Low values mean slower complex formation, high ones faster complex formation.

Read-outs that look alike come from different tables or passages of the source.

For assay [1], the target named is T1, wildtype SARS-COV-2 spike receptor binding domain (RBD) (SARS-COV-2 (wildtype), UniProt P0DTC2 320-541).
For assay [2], the target named is T1, wildtype SARS-COV-2 spike receptor …. Description: SPR (Biacore).

B1: Etesevimab (LY-CoV016) (antibody, V domains shown)
VH: EVQLVESGGGLVQPGGSLRLSCAASGFTVSSNYMSWVRQAPGKGLEWVSVIYSGGSTFYADSVKGRFTISRDNSMNTLFLQMNSLRAEDTAVYYCARVLPMYGDYLDYWGQGTLVTVSS
VL: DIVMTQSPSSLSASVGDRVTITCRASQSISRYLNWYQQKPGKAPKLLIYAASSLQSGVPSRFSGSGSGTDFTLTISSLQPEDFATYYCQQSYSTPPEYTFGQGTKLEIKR
As for B1, in assay [1], the Kd turned out to be 6.83 nM, the koff was 0.00988 s⁻¹ and the kon is 1.46e+06 M⁻¹ s⁻¹. Also, the affinity in assay [2], expressed as Kd, was 6.8 nM.
